Experimental findings from patent US20240083991A1 (Pfizer, published 2024) are described below.

“And” between values parts separate entries of the source, which are not always exact repeats. Equal entries are not always repeated. Where two headings read alike, the source gives them in different places.

In test [1] the target is T1, cyno BMP9 (mature) (cynomolgus monkey, UniProt G7PEU8 320-429).
T1 sequence: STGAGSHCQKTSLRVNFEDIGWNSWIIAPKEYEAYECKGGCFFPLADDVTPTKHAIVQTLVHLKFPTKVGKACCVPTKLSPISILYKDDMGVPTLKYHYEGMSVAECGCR
In words: cell-based or functional assay.

Test [2] concerns the target T2, human mature BMP9 (human, UniProt Q9UK05 320-429).
T2 construct: also called GDF2; Human BMP9-biotin
T2 sequence: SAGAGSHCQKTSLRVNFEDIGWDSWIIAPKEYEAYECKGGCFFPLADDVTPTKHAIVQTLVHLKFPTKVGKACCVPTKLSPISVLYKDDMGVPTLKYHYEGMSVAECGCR
Nature of the test: competition ELISA: antibody mixed with 0.6 nM BMP9-biotin, binding to coated BMPRII (1 µg/ml) detected. As to the method: For competition ELISAs, each receptor protein was coated on a 384-well ELISA plate at its optimal coating concentration, 20 μl/well in PBS-CMF at 4° C. overnight. The next day, plates were washed 3 times with PBS+0.05% TWEEN™ 20 and blocked with PBS+1% BSA for 1 hr at RT with shaking. Anti-BMP9 Abs were serially diluted 3-fold in PBS+1% BSA, starting from 100 nM, then mixed with the same volume of the optimal concentration of biotinylated BMP9. The final concentration of biotinylated BMP9 corresponded to the EC₉₀ for each receptor, as determined in a preliminary experiment described above.
Serially diluted Abs were incubated with biotinylated BMP9 for at least 15 min at RT. Plates were washed as before, followed by addition of serially diluted Abs and the biotinylated BMP9 mixture. After incubating for 1 hr at RT, plates were washed 3 times with PBS+0.05% TWEEN™ 20. Secondary antibody was added (HRP-Streptavidin from BioLegend, cat #405210, 1:2000), followed by 1 hr incubation at RT. Plates were washed as before, signal was developed using TMB substrate, and the reaction stopped with 0.18 M H₂SO₄. Absorbance was read at 450 nm on an ENVISION® plate reader (Perkin Elmer).

Test [3] has as its target T1, cyno BMP9 (mature). In words: cell-based or functional assay. The source holds these as a separate data set.
Test [4] concerns the target T3, rat BMP9 (mature) (rat, UniProt M0RB87 320-430, Chemically biotinylated for capture on the SPR chip; sites not stated. Natural mature BMP9 is a disulfide-linked homodimer; one monomer chain is given.).
T3 sequence: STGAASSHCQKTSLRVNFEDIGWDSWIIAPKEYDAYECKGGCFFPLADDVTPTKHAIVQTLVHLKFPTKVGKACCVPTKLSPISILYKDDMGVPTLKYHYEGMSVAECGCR
In words: cell-based or functional assay.

Test [5] concerns the target T1, cyno BMP9 (mature). In words: cell-based or functional assay. This is another data set of the same source.
The target in test [6] is T3, rat BMP9 (mature). In words: cell-based or functional assay. The source holds these as a separate data set.
The target of test [7] is T2, human mature BMP9. Nature of the test: cell-based or functional assay.
Test [8] addresses T2, human mature BMP9. In words: cell-based or functional assay. This is another data set of the same source.
The target in test [9] is T3, rat BMP9 (mature). Nature of the test: cell-based or functional assay. This is another data set of the same source.
For test [10], the target named is T2, human mature BMP9. Nature of the test: cell-based or functional assay. This is another data set of the same source.
Test [11] concerns the target T2, human mature BMP9. In words: method not stated (legend of the crystal structure figure).
Test [12] deals with T2, human mature BMP9. In words: cell-based or functional assay. This is another data set of the same source.
Test [13] deals with T2, human mature BMP9. Nature of the test: cell-based or functional assay. This is another data set of the same source.
The target in test [14] is T1, cyno BMP9 (mature). In words: cell-based or functional assay. This is another data set of the same source.
Test [15] has as its target T3, rat BMP9 (mature). Nature of the test: cell-based or functional assay. This is another data set of the same source.
The target in test [16] is T2, human mature BMP9. Nature of the test: cell-based or functional assay. The source holds these as a separate data set.
The target in test [17] is T2, human mature BMP9. In words: cell-based or functional assay. The source holds these as a separate data set.

B1: Ab1076 (antibody, human IgG1, lambda, V domains shown)
VH: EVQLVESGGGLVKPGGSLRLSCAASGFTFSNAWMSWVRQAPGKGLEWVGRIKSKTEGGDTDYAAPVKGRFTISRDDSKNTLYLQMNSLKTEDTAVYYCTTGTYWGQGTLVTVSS
VL: QSVLTQPPSASGTPGQRVTISCSVTNTDIDIFNVHWYQQLPGTAPKLLFFHDYRPSGVSDRFSGSKSGTSASLAIVGLQSEDEGYYYCAGLDEAMRGPVFGGGTKLTVLG
notes: The heavy chain can be prepared with or without the C-terminal lysine
As for B1, the “IC50 (read off the curve): BMP9-induced pSMAD1/5/9 nuclear translocation, cynomolgus monkey PAEC” value in test [1] is approximately 0.02 nM. Further, in [2], the “IC50 (read off the curve)” value was approximately 0.3 nM. Moreover, the “IC50 (read off the curve): BMP9-induced pSMAD2 nuclear translocation, cynomolgus monkey PAEC” value in [3] lay within 0.016 to 0.03 nM. The “IC50 (read off the curve): BMP9-induced pSMAD2 nuclear translocation, rat LSEC” value in [4] was approximately 0.5 nM. Moreover, the “IC50, inhibition of BMP9-induced phospho-SMAD2 nuclear translocation in endothelial cells” value was 0.027 to 0.042 nM in test [5]; 0.465 nM and 1 nM in test [6]. The “IC50 (read off the curve): BMP9-induced pSMAD2 nuclear translocation, TIME cells” value in test [7] and in [17] was approximately 0.04 nM in each case. The “IC50 (read off the curve): BMP9-induced pSMAD1/5/9 nuclear translocation, TIME cells” value in test [8] and in [12] was approximately 0.03 nM each time. In addition, the “IC50 (read off the curve): BMP9-induced pSMAD1/5/9 nuclear translocation, rat LSEC” value in test [9] was approximately 0.3 nM. Also, in test [10], the “IC50 (read off the curve): BMP9-induced pSMAD1/5/9 nuclear translocation, HPAEC” value is approximately 0.04 nM. Besides, the “fold increase in binding affinity relative to Ab93” value in [11] was approximately 20 fold. Moreover, in test [13], the “IC50 (read off the curve): BMP9-induced pSMAD2 nuclear translocation, HPAEC” value is approximately 0.03 nM. Besides, the “IC50 (read off the curve): Cyno BMP9-induced pSMAD1/5/9 nuclear translocation, TIME cells” value in test [14] was approximately 0.1 nM. Besides, in test [15], the “IC50 (read off the curve): Rat BMP9-induced pSMAD1/5/9 nuclear translocation, TIME cells” value was approximately 0.1 nM. Also, the “IC50 (read off the curve): Human BMP9-induced pSMAD1/5/9 nuclear translocation, TIME cells” value in [16] is approximately 0.1 nM.
